Measured values from publication PMC3149346.

Key:
Experiment in all cases: AUC
[1] = target: LZ5 K309C/C335A mutant of the Nek2 leucine zipper (UniProt P51955)
[2] = target: Nek2 core leucine zipper construct LZ5 (residues 299-343) (UniProt P51955)
[3] = target: Nek2 leucine zipper construct LZ0 (residues 290-360) (UniProt P51955)

Q: For “LZ5 K309C/C335A mutant of the Nek2 leucine zipper (from UniProt P51955 299-343) (domain or fragment)”, which stoichiometry N [1] is on record?
A: 2

Q: How did the stoichiometry N [2] turn out when “Nek2 core leucine zipper construct LZ5 (residues 299-343) (from UniProt P51955 299-343) (domain or fragment)” was run?
A: 2

Q: For “Nek2 leucine zipper construct LZ0 (residues 290-360) (from UniProt P51955 290-360) (domain or fragment)”, which stoichiometry N [3] is on record?
A: 2
